In assay [1] the target is α6β1 integrin (UniProt P23229). Kind of assay: solid-phase integrin binding assay: 521E8 coated on plate, 10 nM α6β1 integrin, A490.
Assay [2] has as its target α6β1 integrin (UniProt P23229). Description: solid-phase integrin binding assay: 511E8 coated on plate, 10 nM α6β1 integrin, A490.

Sequence of UniProt P23229 (P23229 other isoform, or with tags, fused parts or gaps limits assumed, chain 1 of 2): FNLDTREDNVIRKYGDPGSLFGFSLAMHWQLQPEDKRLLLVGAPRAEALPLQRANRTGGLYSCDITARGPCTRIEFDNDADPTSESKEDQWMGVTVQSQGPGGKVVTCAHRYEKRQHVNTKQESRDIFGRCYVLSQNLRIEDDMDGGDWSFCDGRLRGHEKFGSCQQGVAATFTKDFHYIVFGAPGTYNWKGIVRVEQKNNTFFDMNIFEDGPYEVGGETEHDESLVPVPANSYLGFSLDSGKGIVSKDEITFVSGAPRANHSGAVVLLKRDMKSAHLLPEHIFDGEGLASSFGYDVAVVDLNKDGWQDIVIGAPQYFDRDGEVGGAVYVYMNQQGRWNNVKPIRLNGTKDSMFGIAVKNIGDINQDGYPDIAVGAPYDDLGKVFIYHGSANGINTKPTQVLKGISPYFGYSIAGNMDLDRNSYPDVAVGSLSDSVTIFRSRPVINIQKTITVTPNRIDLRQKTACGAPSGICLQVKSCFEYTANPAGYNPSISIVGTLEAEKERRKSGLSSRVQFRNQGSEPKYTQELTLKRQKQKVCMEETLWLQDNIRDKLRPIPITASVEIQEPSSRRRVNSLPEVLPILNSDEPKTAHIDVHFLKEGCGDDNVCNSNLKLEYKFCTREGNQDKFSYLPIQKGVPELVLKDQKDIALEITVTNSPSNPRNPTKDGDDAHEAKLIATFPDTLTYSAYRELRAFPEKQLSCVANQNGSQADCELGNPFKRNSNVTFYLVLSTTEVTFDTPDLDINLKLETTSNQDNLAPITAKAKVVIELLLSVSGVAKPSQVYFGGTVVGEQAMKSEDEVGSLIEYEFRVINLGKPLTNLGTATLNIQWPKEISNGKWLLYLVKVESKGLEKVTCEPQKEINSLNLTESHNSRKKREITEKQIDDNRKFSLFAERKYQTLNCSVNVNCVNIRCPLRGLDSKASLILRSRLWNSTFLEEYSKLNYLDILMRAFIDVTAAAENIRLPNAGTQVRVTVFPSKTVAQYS
Sequence of UniProt P23229 (P05556 21-728 limits assumed, chain 2 of 2, further chain): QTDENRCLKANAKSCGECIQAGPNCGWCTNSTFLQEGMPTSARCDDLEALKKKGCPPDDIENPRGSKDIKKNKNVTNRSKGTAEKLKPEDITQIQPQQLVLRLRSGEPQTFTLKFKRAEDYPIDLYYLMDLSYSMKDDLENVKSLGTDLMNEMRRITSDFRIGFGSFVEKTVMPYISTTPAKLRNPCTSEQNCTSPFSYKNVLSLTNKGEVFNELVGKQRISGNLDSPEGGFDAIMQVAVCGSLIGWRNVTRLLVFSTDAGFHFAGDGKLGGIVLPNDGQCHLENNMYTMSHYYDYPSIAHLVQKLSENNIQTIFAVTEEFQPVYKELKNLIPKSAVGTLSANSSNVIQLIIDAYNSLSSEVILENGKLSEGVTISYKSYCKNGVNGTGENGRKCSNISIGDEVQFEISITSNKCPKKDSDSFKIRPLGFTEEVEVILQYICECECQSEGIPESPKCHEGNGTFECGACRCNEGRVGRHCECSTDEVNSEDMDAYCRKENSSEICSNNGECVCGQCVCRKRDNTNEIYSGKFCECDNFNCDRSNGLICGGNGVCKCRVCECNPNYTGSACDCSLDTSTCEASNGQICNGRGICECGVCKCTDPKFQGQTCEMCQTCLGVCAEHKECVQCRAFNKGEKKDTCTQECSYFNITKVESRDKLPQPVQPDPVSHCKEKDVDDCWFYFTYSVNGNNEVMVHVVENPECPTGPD

“Human recombinant laminin 521E8 (from UniProt O15230 2534-3327; P55268 1573-1798; P11047 1362-1608) (ligand)”: in the assay with α6β1 integrin [1], the increase in integrin binding activity by addition of 50 µg/mL HSA to the coating solution, against 521E8 coated alone was in the range of 10 to 20%; the increase in integrin binding activity by addition of 50 µg/mL gelatin to the coating solution, against 521E8 coated alone was in the range of 10 to 60%; the increase in integrin binding activity by addition of 500 µg/mL HSA to the coating solution, against 521E8 coated alone, at 2.7 nM 521E8 is more than 60%; the increase in integrin binding activity by addition of gelatin (500 µg/mL by context) to the coating solution, against 521E8 coated alone, at 2.7 nM 521E8 is more than 80%.

Regarding “Human recombinant laminin 511E8 (from UniProt O15230 2534-3327; P07942 1561-1786; P11047 1362-1608) (ligand)”, in the assay with α6β1 integrin [2], the fold increase in integrin binding activity by addition of gelatin (500 µg/mL by context) to the coating solution, against 511E8 coated alone, at 2.7 nM 511E8 is more than 2 fold; the increase in integrin binding activity by addition of 50 µg/mL HSA to the coating solution, against 511E8 coated alone was determined as 10%; the increase in integrin binding activity by addition of 50 µg/mL gelatin to the coating solution, against 511E8 coated alone fell in the range of 20 to 60%; the increase in integrin binding activity by addition of HSA (500 µg/mL by context) to the coating solution, against 511E8 coated alone, at 2.7 nM 511E8 is more than 80%.
